Data set [1] in a line: ApoHb stability during storage (DCNh activity assay, total protein, RP-HPLC). In kind it is physicochemical. Conditions: for effect of time on apoHb activity or total protein: stored at −80° C. The protocol: The extinction coefficients of DCNh and rHbCN were 85 mM^−1 cm^−1 and 114 mM^−1 cm^−1, respectively.
Three TFF-apoHb batches were prepared. […] These groups consisted of unconcentrated, concentrated and lyophilized apoHb. […] The remainder of the batch was either sent to be lyophilized or to be concentrated to […]. […] The lyophilized powder was stored in a closed container at −80° C. […] These time intervals were chosen to capture relevant changes in activity at each storage condition. […] Thus, after initial measurements on a weekly basis, the insignificant changes lead to longer intervals between measurements. Statistical analysis was performed on JMP Pro v 12.2.2 (SAS Institute, Cary, N.C.) and measured concentrations were compared to the initial time point values of each batch. A linear fit with the logarithmic value of the concentration was used to examine the effect of time with the ANOVA test. For time point differences, time was considered as discrete and the TUKEY HSD test was performed.
Reverse Phase Chromatography. Reverse phase (RP) chromatography was performed with a BioBasic-18 column (Thermo Scientific, Waltham, Mass.) on a Thermo Scientific Dionex Ultimate UHPLC system. The flow rate of the mobile phase was set to 0.75 mL/min. The column was equilibrated with 35% acetonitrile and 65% TFA (0.5 wt %, pH 2.6) for 10 minutes. The gradient was then shifted to 43% acetonitrile over a 1 minute interval. The protein was eluted with an increasing linear gradient of 43 to 47% acetonitrile for 30 minutes. The column was then held at 47% acetonitrile for 20 minutes.

For a further data set, the target named is T1, acellular human Hb (Homo sapiens, UniProt P68871+P69905).
T1 construct: Expired units of human red blood cells were generously donated; from tissue; host or cells: expired human red blood cell units; purified in house by tangential flow filtration
The data set can be described thus: Vascular response to acellular Hb after pretreatment, hamster dorsal window chamber. In kind it is in vivo, Golden Syrian Hamsters. As for the experimental part:
Studies were performed in 55-65 g male Golden Syrian Hamsters (Charles River Laboratories, Boston, Mass.) fitted with a dorsal window chamber. The hamster window chamber model is widely used for microvascular studies without anesthesia. The complete surgical technique has been described previously. Two days after window implantation, arterial and venous catheters filled with heparinized saline solution (30 IU/mL) were implanted into the carotid and jugular vessels. Catheters were tunneled under the skin, exteriorized at the dorsal side of the neck, and securely attached to the window frame.
The unanesthetized animal was placed in a restraining tube with a longitudinal slit from which the window chamber protruded, then fixed to the microscopic stage for transillumination with the intravital microscope (BX51WI, Olympus, Japan). Animals were given 20 minutes to adjust to the tube environment and images were obtained using a CCD camera (4815, COHU, San Diego, Calif.). […]
The MAP and HR were monitored continuously (MP150, Biopac System Inc., Santa Barbara, Calif.). Hct was measured from centrifuged arterial blood samples taken in heparinized capillary tubes. Hb content was determined spectrophotometrically (B-Hemoglobin, Hemocue, Stockholm, Sweden). Arterial blood was collected in heparinized glass capillaries (50 μL) and immediately analyzed for pO2, pCO2, and pH (ABL90; Radiometer America, Brea, Calif.). Arterial Hb saturation was measured using an IL482 CO-Oximeter (Instrumentation Laboratory, Lexington, Mass.).
Arteriolar and venular blood flow velocities were measured using the photodiode cross-correlation method (Photo-Diode/Velocity, Vista Electronics, San Diego, Calif.). The measured centerline velocity (V) was corrected according to blood vessel size to obtain the mean RBC velocity. […] Blood flow (Q) was calculated from the measured values as Q=π/4D^2 V.
Functional capillaries, defined as capillary segments that have transit of at least one RBC in a 60 second period in 10 successive microscopic fields, were assessed in a region of 0.46 mm^2. […]

In another data set the target is T2, PolyHb (Homo sapiens, UniProt P68871+P69905).
T2 construct: from tissue; host or cells: human red blood cells; Hb purified and polymerised in house
The data set can be described thus: 20% isovolemic exchange transfusion of PolyHb after pretreatment, hamster window chamber. In kind it is in vivo, Golden Syrian Hamsters. As for the experimental part: Additionally, animals with signs of low perfusion, inflammation, edema, or bleeding in their microvasculature were excluded from the study. Prior to treatment, baseline systemic parameters and microvascular hemodynamics were assessed. […] 20 minutes following the initial treatment, the systemic parameters and microvascular hemodynamics were assessed. Afterward, the animals underwent a 20 percent isovolemic exchange transfusion with a 10 g/dL PolyHb solution. After another 20 minutes, the systemic parameters and microvascular hemodynamics were measured. Mean arterial pressure (MAP) and heart rate (HR) were monitored continuously (MP150, Biopac System Inc., Santa Barbara, Calif.). The sample size of 5 animals per group was calculated based on an expected 10% difference in mean arterial pressure between groups, an α=0.05, and […], and equal enrollment for all groups. Additionally, microhemodynamic measurements contain data from multiple vessels within the field (5-7 arterioles and venules selected at baseline based on visual clarity), improving the power of these measurements. Each experiment is a repeated measures study, so all experimental timepoints are replicated between all animals and groups. Furthermore, each experimental group contains animals from different litters, improving the replication of these studies. Animals were randomly assigned to their respective group before baseline measurements were taken. Each group contains animals from multiple litters of hamsters to improve randomization. Investigators were not blinded to group allocation during data collection or analysis. Blinding is not possible with these solutions as they have distinct colors. Measurements taken are highly quantitative, so blinding should have little impact.
The unanesthetized animal was placed in a restraining tube with a longitudinal slit from which the window chamber protruded, then fixed to the microscopic stage for transillumination with the intravital microscope (BX51WI, Olympus, New Hyde Park, N.Y.). […] Measurements were carried out using a 40× (LUMPFL-WIR, numerical aperture 0.8, Olympus) water immersion objective.
Arteriolar and venular blood flow velocities were measured using the photodiode cross-correlation method (Photo-Diode/Velocity, Vista Electronics, San Diego, Calif.). The measured centerline velocity (V) was corrected according to blood vessel size to obtain the mean RBC velocity. A video image-shearing method was used to measure blood vessel diameter (D). Blood flow (Q) was calculated from the measured values as
Functional capillaries, defined as capillary segments that have RBC transit of at least one RBC in a 60 second period in 10 successive microscopic fields, were assessed in a region of 0.46 mm^2. FCD (mm^−1) is calculated as the total length of RBC perfused capillaries divided by the area (0.46 mm^2).

A short description of data set [2]: Specificity of Al-PC binding to proteins (UV-visible absorbance at 680 nm). The following applies: absorbance at 680 nm after Al-PC addition in PBS.
Experimental: The stock Al-PC solution was diluted 100× into 100% EtOH.
The concentrations of Hp, HSA, Hb and rHb in solution were 1.0 mg/mL, 0.35 mg/ml (and 3.5 mg/ml), 0.35 mg/mL, and 0.33 mg/mL respectively.
Data set [3] can be described thus: O2 equilibrium binding curves of rHb and native Hb (Hemox analyzer). The format is biochemical. The following applies: 37° C.; for P50: O2 affinity; for N (cooperativity coefficient n): O2 equilibrium. As for the experimental part: rHb Analysis. Various liganded forms of rHb were analyzed via UV-Vis spectroscopy and compared against native Hb. The oxy-rHb and oxyHb equilibrium binding curves were measured using a Hemox analyzer (TCS Scientific Corp., New Hope, Pa.) at 37° C. The spectra of rHb was measured after one day reaction with excess heme (stage 1), after reduction and diafiltration with the modified HEMOX buffer (stage 2), after placing the rHb mixture under a CO atmosphere (stage 3), after heating the CO-rHb mixture and removing precipitate (stage 4), and after re-oxygenating the rHb sample (stage 5). Spectral deconvolution software was developed in the Python programming language (Python Software Foundation Beaverton, Oreg.) using the non-linear least squares function curve_fit of the SciPy package to determine the fraction of various liganded forms of rHb that contribute to the final spectra of the rHb mixture (i.e. containing metHb, hemichrome, oxyHb, HbCO and heme).

For another data set, the system named is β-thalassemic mice. The following applies: cited from earlier work.

“And” between values parts separate entries of the source, which are not always exact repeats. Equal entries are not always repeated. Marks after values point to notes of the source that are not given here.

T2 sequence (P69905 2-142 limits assumed): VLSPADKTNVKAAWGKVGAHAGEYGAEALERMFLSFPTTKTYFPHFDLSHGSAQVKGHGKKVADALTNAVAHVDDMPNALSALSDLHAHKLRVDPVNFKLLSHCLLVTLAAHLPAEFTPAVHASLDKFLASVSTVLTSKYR
T2 sequence (P68871 2-147 limits assumed): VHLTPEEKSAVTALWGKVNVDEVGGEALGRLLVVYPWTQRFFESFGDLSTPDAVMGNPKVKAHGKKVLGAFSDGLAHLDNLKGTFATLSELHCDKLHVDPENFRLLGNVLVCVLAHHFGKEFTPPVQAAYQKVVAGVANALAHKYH
T1 sequence (P69905 2-142 limits assumed): as the sequence (P69905 2-142 limits assumed) above
T1 sequence (P68871 2-147 limits assumed): as the sequence (P68871 2-147 limits assumed) above

Take “apoHb: protein produced by removing heme from Hb; made via acidic ethanol tangential flow filtration”: in data set [1] (4° C., −80° C., and lyophilized form), the “loss of apoHb activity during long term storage” value was “Virtually no loss of apoHb activity”. In addition, in data set [1] (37° C., liquid), the “total protein and activity in solution during storage” value is “quickly lost total protein and activity in solution”. Besides, the “P50 and cooperativity coefficient after reconstitution into rHb” value in data set [1] (apoHb stored at 4° C. for one month, vs reconstituted right after production) was “did not show any significant difference”. For the same molecule, the “effect of time on apoHb activity or total protein” value was “did not show a significant effect of time on apoHb activity or total protein” in data set [1] (lyophilized) and “no statistically significant effect of time on apoHb activity or total protein” in data set [1] (both concentrations). Also, the “retention of total protein” value in data set [1] (one-week storage at 22° C.) is 80-90%. Moreover, the “oxidative modifications (RP-HPLC)” value is “show an additional β-chain peak (βox)” in data set [1] (stored at 4° C. or at 22° C.) and “no oxidative modifications were observed” in data set [1] (stored at −80° C. or lyophilized for over a year). The “effect of time on activity” value in data set [1] (stored at 4° C., unconcentrated) is given as “no significant differences were seen after day 10”. Besides, the MAP entry in the data set with acellular human Hb (after acellular Hb 10% hypervolemic infusion) is “elevated MAP compared to baseline and pretreatment”; with PolyHb (after PolyHb exchange transfusion), “significant increase in MAP”. Moreover, the FCD result was “FCD decreased” with acellular human Hb (after acellular Hb infusion); “FCD significantly decreased” with PolyHb (after PolyHb transfusion); “significant increase in FCD” with PolyHb (after treatment, before PolyHb transfusion). Besides, in the data set with acellular human Hb (after acellular Hb infusion), the HR entry was “statistically significant decrease in HR from baseline and pre-treatment”. In addition, the “arteriole and venule diameter” value in the data set with PolyHb (after PolyHb transfusion) was “significant decrease in relative arteriole and venule diameter compared to the baseline”. Also, the “arteriole and venule fluid velocities and volumetric flow rates” value in the data set with PolyHb (after PolyHb transfusion) is “the volumetric flow rate in the arterioles and venules decreased”. Further, the “MAP or HR” value with PolyHb (after administration, prior to transfusion of PolyHb) is listed as “no significant effect on MAP or HR”. In addition, the Al-PC binding entry in data set [2] was “Al-PC bound to apoHb and prevented Al-PC aggregation”.

“TFF rHb: reconstituted Hb made from TFF-apoHb and heme”: the P50 is 11.52±0.02 mm Hg and 11.20 ± 0.43 mm Hg in data set [3]; 11.20±0.43 mm Hg in data set [3] (listed as unconcentrated rHb). The “N (cooperativity coefficient n)” value in data set [3] (listed as unconcentrated rHb) is listed as 2.27±0.10. Besides, the Al-PC binding result in data set [2] is listed as “no appreciable binding of Al-PC”.

Turning to “TFF rHb Concentrated: reconstituted Hb made from concentrated TFF-apoHb”, the figures for the P50 in data set [3] and in data set [3] (listed as concentrated rHb) were 11.36 ± 0.87 mm Hg and 11.36±0.87 mm Hg, respectively. Moreover, the entries for the “N (cooperativity coefficient n)” value in data set [3] and in data set [3] (listed as concentrated rHb) were 2.14 ± 0.17^a and 2.14±0.17, respectively.

B1: Hpx: hemopexin, plasma heme scavenging protein (protein, UniProt P02790 24-462, looked up)
Hemopexin: TPLPPTSAHGNVAEGETKPDPDVTERCSDGWSFDATTLDDNGTMLFFKGEFVWKSHKWDRELISERWKNFPSPVDAAFRQGHNSVFLIKGDKVWVYPPEKKEKGYPKLLQDEFPGIPSPLDAAVECHRGECQAEGVLFFQGDREWFWDLATGTMKERSWPAVGNCSSALRWLGRYYCFQGNQFLRFDPVRGEVPPRYPRDVRDYFMPCPGRGHGHRNGTGHGNSTHHGPEYMRCSPHLVLSALTSDNHGATYAFSGTHYWRLDTSRDGWHSWPIAHQWPQGPSAVDAAFSWEEKLYLVQGTQVYVFLTKGGYTLVSGYPKRLEKEVGTPHGIILDSVDAAFICPGSSRLHIMAGRRLWWLDLKSGAQATWTELPWPHEKVDGALCMEKSLGPNSCSANGPGLYLIHGPNLYCYSDVEKLNAAKALPQPQNVTSLLGCTH
Turning to B1, the RBC levels result in the data set with β-thalassemic mice (Hpx treatment alone) is listed as “did not improve RBC levels”. The “iron levels in the liver” value in the data set on β-thalassemic mice (one month of Hpx treatment alone) was “increased iron levels in the liver”.

Source of the values: patent publication US20220218834A1, “APOHEMOGLOBIN-HAPTOGLOBIN COMPLEXES AND METHODS OF USING THEREOF” (OHIO STATE INNOVATION FOUNDATION, priority 2019, published 2022).
